The values that follow come from US9567379 (UNIVERSITY OF CHICAGO, dated 2017).

In general, Kd refers to the constant that tells how readily two partners part at equilibrium.

In assay [1] the target is T1, human prothrombin (human, UniProt P00734 44-622).
T1 construct: Amine-coupled to a CM5 chip
Put plainly: SPR (BIAcore 3000), human prothrombin amine-coupled to CM5 chip, Coa injected at 0-75 nM, 1:1 model.

Assay [2] deals with T2, human fibrinogen (human, UniProt P02671 20-644; P02675 31-491; P02679 27-437).
T2 construct: Amine-coupled to a CM5 chip
T2 sequence 1: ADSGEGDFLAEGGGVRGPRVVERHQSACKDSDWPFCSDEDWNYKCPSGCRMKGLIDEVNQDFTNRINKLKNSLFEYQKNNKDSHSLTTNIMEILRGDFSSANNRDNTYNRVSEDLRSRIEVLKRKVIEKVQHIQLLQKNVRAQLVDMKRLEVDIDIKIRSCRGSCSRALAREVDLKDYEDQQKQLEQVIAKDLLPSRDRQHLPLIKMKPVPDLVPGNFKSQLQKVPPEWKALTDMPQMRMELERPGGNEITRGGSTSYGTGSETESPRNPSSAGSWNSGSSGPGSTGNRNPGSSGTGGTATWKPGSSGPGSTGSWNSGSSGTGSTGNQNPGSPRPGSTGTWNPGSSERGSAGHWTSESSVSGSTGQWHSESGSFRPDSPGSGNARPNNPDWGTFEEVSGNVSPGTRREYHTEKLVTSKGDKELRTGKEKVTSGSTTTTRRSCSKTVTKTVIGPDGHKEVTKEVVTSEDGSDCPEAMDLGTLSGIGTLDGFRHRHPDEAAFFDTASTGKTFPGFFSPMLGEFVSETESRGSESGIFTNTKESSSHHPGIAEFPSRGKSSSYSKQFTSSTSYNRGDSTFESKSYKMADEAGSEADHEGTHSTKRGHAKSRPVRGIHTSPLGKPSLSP
T2 sequence 2: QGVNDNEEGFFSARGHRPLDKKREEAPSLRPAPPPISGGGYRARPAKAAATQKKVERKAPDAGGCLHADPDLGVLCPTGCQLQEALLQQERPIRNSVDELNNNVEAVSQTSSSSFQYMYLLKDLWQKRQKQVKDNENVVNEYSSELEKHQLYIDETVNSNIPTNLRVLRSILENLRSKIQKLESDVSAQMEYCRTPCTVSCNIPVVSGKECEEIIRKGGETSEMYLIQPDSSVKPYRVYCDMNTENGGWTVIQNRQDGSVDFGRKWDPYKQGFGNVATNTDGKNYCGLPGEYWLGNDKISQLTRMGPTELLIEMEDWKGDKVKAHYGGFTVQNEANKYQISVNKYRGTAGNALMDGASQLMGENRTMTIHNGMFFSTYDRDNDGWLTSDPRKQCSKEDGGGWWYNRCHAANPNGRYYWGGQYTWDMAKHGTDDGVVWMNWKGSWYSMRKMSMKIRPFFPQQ
T2 sequence 3: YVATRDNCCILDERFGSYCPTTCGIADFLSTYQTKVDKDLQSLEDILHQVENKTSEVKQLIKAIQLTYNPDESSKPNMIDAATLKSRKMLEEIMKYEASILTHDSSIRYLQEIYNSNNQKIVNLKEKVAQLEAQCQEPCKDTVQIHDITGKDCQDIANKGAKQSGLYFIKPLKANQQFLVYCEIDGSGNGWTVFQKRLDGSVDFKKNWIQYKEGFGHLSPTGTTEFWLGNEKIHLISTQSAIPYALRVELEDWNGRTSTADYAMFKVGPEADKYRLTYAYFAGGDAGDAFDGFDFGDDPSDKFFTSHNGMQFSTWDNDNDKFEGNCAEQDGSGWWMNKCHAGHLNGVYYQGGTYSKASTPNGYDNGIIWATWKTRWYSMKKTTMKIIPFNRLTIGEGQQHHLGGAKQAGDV
Put plainly: SPR (BIAcore 3000), human fibrinogen amine-coupled to CM5 chip, Coa injected, 1:1 model. In general terms: SPR reads the build-up and loss of mass on a sensor chip optically.

For assay [3], the target named is T1, human prothrombin. In words: SPR (BIAcore 3000), human prothrombin amine-coupled to CM5 chip, vWbp injected, 1:1 model; target prothrombin.
Assay [4] has as its target T2, human fibrinogen. In words: SPR (BIAcore 3000), human fibrinogen amine-coupled to CM5 chip, vWbp injected, 1:1 model; target fibrinogen.

B1: coagulase (Coa), recombinant mature protein with the His6 tag removed by Factor Xa (other)
chain: IVTKDYSGKSQVNAGSKNGTLIDSRYLNSALYYLEDYIIYAIGLTNKYEYGDNIYKEAKDRLLEKVLREDQYLLERKKSQYEDYKQWYANYKKENPRTDLKMANFHKYNLEELSMKEYNELQDALKRALDDFHREVKDIKDKNSDLKTFNAAEEDKATKEVYDLVSEIDTLVVSYYGDKDYGEHAKELRAKLDLILGDTDNPHKITNERIKKEMIDDLNSIIDDFFMETKQNRPKSITKYNPTTHNYKTNSDNKPNFDKLVEETKKAVKEADDSWKKKTVKKYGETETKSPVVKEEKKVEEPQAPKVDNQQEVKTTAGKAEETTQPVAQPLVKIPQGTITGEIVKGPEYPTMENKTVQGEIVQGPDFLTMEQSGPSLSNNYTNPPLTNPILEGLEGSSSKLEIKPQGTESTLKGTQGESSDIEVKPQATETTEASQYGPRPQFNKTPKYVKYRDAGTGIREYNDGTFGYEARPRFNKPSETNAYNVTTHANGQVSYGARPTYKKPSETNAYNVTTHANGQVSYGARPTQNKPSKTNAYNVTTHGNGQVSYGARPTQNKPSKTNAYNVTTHANGQVSYGARPTYKKPSKTNAYNVTTHADGTATYGPRVTK
notes: also called functionally active Coa
Consider B1, for which the dissociation constant Kd in assay [1] worked out at 0.028 µM; in assay [2] it was 0.0931 µM.

B2: von Willebrand factor binding protein (vWbp), recombinant mature protein with the His6 tag removed by Factor Xa (other)
chain: VVSGEKNPYVSESLKLTNNKNKSRTVEEYKKSLDDLIWSFPNLDNERFDNPEYKEAMKKYQQRFMAEDEALKKFFSEEKKIKNGNTDNLDYLGLSHERYESVFNTLKKQSEEFLKEIEDIKKDNPELKDFNEEEQLKCDLELNKLENQILMLGKTFYQNYRDDVESLYSKLDLIMGYKDEERANKKAVNKRMLENKKEDLETIIDEFFSDIDKTRPNNIPVLEDEKQEEKNHKNMAQLKSDTEAAKSDESKRSKRSKRSLNTQNHKPASQEVSEQQKAEYDKRAEERKARFLDNQKIKKTPVVSLEYDFEHKQRIDNENDKKLVVSAPTKKPTSPTTYTETTTQVPMPTVERQTQQQIIYNAPKQLAGLNGESHDFTTTHQSPTTSNHTHNNVVEFEETSALPGRKSGSLVGISQIDSSHLTEREKRVIKREHVREAQKLVDNYKDTHSYKDRINAQQKVNTLSEGHQKRFNKQINKVYNGK
notes: also called functionally active vWbp
For the molecule B2, the Kd in assay [3] was found to be 0.0384 µM; in assay [4], 0.484 µM.
